Assay [1] deals with T1, recombinant human folate receptor beta (FRβ), residues 22 to 236, with ADPG at the N-terminus and five … (human, UniProt P14207 22-236).
T1 construct: also called hFRβ; recombinant FRβ
Description: SPR, Biacore T200; affinity relative to the chimeric IgG control. As for the experimental part:
(§1) To begin the analysis of the affinity matured antibodies, AS04498 was selected for further analysis. Antibody affinity to antigen protein was determined using a Surface Plasmon Resonance (SPR) biosensor, Biacore T200 (GE Healthcare). Antibody was immobilized on the sensor chip through Fc capture method. Antigen protein was used as the analyte. The data of dissociation (kd) and association (k0) rate constants were obtained using Biacore T200 evaluation software. The equilibrium dissociation constants (KD) were calculated from the ratio of kd over k0.

Assay [2] has as its target T1, recombinant human folate receptor beta …. Description: affinity measurement of full length IgG on recombinant FRβ (FIGS. 6A-6C, summarised in Table 5); reference: Chimeric IgG. The sentence says 'higher' of the KD, but the KD is lower, so the affinity is higher. As for the experimental part: as §1
The target is the same in assay [3]. The assay is described as follows: SPR, Biacore T200, antibody captured through Fc, hFRβ as analyte. As for the experimental part: as §1
For orientation: Surface plasmon resonance follows binding to a sensor surface in real time, without labels.

Assay [4] has the same target. Description: combinatorial library screen: ELISA on coated antigen, then affinity (dissociation rate) ranking.

T1 sequence (P14207 other isoform, or with tags, fused parts or gaps): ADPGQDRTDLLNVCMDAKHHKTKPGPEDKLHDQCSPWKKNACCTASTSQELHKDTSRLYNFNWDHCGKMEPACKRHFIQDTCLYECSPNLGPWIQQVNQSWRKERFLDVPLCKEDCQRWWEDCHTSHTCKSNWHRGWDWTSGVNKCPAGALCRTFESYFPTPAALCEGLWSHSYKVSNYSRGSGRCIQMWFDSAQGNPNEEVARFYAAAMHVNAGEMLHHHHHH

B1: AS04498 antibody (affinity matured, full length IgG) (antibody, V domains shown)
VH: EVQLVQSGAEVKKPGASVKVSCKASGYTFTYYAMHWVRQAPGQRLEWMGWINAGNGNTKYSQKFQGRVTITRDTSASTAYMELSSLRSEDTAVYYCARDISYGSFDYWGQGTLVTVSS
VL: SSELTQDPAVSVALGQTVRITCQGDSLRSNYANWYQQKPGQAPVLVIYGQFNRPSGIPDRFSGSSSGNTASLTITGAQAADEADYYCDSRVSTGIHVVFGGGTKLTVLG
notes: also called ASO4498; AM
As for B1, the “Fold Increase” value in assay [1] is 38 fold. In addition, the “fold change of KD against the chimeric IgG control” value in assay [2] was 38 fold. In assay [3], the Kd (in general, the concentration at which binding is half-saturated) is 2.5 nM; the koff (usually the rate constant with which the complex falls apart) stood at 0.000144 s⁻¹; the kon (in general, the rate constant with which the complex forms) came out at 57700 M⁻¹ s⁻¹.

B2: M909 IgG (parent monoclonal antibody m909, full length IgG) (antibody, V domains shown, not shown: a dimerising Fc or GST)
VH: EVQLVQSGAEVKKPGASVKVSCKASGYTFTSYAMHWVRQAPGQRLEWMGWINAGNGNTKYSQKFQGRVTITRDTSASTAYMELSSLRSEDTAVYYCARDISYGSFDYWGQGTLVTVSS
VL: SSELTQDPAVSVALGQTVRITCQGDSLRSNYANWYQQKPGQAPVLVIYGQNNRPSGIPDRFSGSSSGNTASLTITGAQAADEADYYCDSRVSTGNHVVFGGGTKLTVLG
notes: also called m909 antibody
Consider B2, for which, in assay [3], the Kd was 92.4 nM, the koff was determined as 0.00592 s⁻¹ and the kon stood at 64100 M⁻¹ s⁻¹.

B3: Clone P (affinity matured antibody from the combinatorial library) (Fab, V domains shown)
VH: EVQLVQSGAEVKKPGASVKVSCKASGYTFTIYAMHWVRQAPGQRLEWMGWINAGNGFTKYSQKFQGRVTITRDTSASTAYMELSSLRSEDTAVYYCARDISYGSFDYWGQGTLVTVSS
VL: SSELTQDPAVSVALGQTVRITCQGDSLRSNYANWYQQKPGQAPVLVIYGQNNRPSGIPDRFSGSSSGNTASLTITGAQAADEADYYCDSRVSTGNHVVFGGGTKLTVLG
notes: Format in the screen not expressly stated
For B3, in assay [4], the binding result is “binds”.

B4: Clone I (affinity matured antibody from the combinatorial library) (Fab, V domains shown)
VH: EVQLVQSGAEVKKPGASVKVSCKASGYTFTIYAMHWVRQAPGQRLEWMGWINAGNGNTKYSQKFQGRVTITRDTSASTAYMELSSLRSEDTAVYYCARDISYGSFDYWGQGTLVTVSS
VL: SSELTQDPAVSVALGQTVRITCQGDSLRSNYANWYQQKPGQAPVLVIYGQNNLPSGIPDRFSGSSSGNTASLTITGAQAADEADYYCDSRVSTGIHVVFGGGTKLTVLG
notes: as for B3
With B4, in assay [4], the binding result is recorded as “binds”.

B5: Clone B (affinity matured antibody from the combinatorial library) (Fab, V domains shown)
VH: EVQLVQSGAEVKKPGVSVKVSCKASGYTFTYYAMHWVRQAPGQRLEWMGWINAGNGFTKYSQKFQGRVTITRDTSASTAYMELSSLRSEDTAVYYCARDISYGSFDYWGQGTLVTVSS
VL: SSELTQDPAVSVALGQTVRITCQGDSLRSNYANWYQQKPGQAPVLVIYGQFNLPSGIPDRFSGSSSGNTASLTITGAQAADEADYYCDSRVSTGIHVVFGGGTKLTVLG
notes: A16V was placed on the heavy chain; Format in the screen not expressly stated
With B5, the binding result in assay [4] is “binds”.

B6: Clone D (affinity matured antibody from the combinatorial library) (Fab, V domains shown)
VH: EVQLVQSGAEVKKPGASVKVSCKASGYTFTYYAMHWVRQAPGQRLEWMGWINAGNGNTKYSQKFQGRVTITRDTSASTAYMELSSLRSEDTAVYYCARDISYGSFDYWGQGTLVTVSS
VL: SSELTQDPAVSVALGQTVRITCQGDSLRSNYANWYQQKPGQAPVLVIYGQFNLPSGIPDRFSGSSSGNTASLTITGAQAADEADYYCDSRVSTGIHVVFGGGTKLTVLG
notes: as for B3
In the case of B6, the binding result in assay [4] is recorded as “binds”.

B7: Clone M (affinity matured antibody from the combinatorial library) (Fab, V domains shown)
VH: EVQLVQSGAEVKKPGASVKVSCKASGYTFTIYAMHWVRQAPGQRLEWMGWINAGNGNTKYSQKFQGRVTITRDTSASTAYMELSSLRSEDTAVYYCARDISYGSFDYWGQGTLVTVSS
VL: SSELTQDPAVSVALGQTVRITCQGDSLRSNYANWYQQKPGQAPVLVIYGQFNLPSGIPDRFSGSSSGNTASLTITGAQAADEADYYCDSRVSTGNHVVFGGGTKLTVLG
notes: as for B3
As for B7, in assay [4], the binding result is “binds”.

B8: Clone O (affinity matured antibody from the combinatorial library) (Fab, V domains shown)
VH: EVQLVQSGAEVKKPGASVKVSCKASGYTFTYYAMHWVRQAPGQRLEWMGWINAGNGNTKYSQKFQGRVTITRDTSASTAYMELSSLRSEDTAVYYCARDISYGSFDYWGQGTLVTVSS
VL: SSELTQDPAVSVALGQTVRITCQGDSLRSNYANWYQQKPGQAPVLVIYGQNNLPSGIPDRFSGSSSGNTASLTITGAQAADEADYYCDSRVSTGNHVVFGGGTKLTVLG
notes: as for B3
B8: the binding result in assay [4] is on record as “binds”.

B9: Clone A (affinity matured antibody from the combinatorial library) (Fab, V domains shown)
VH: EVQLVQSGAEVKKPGASVKVSCKASGYTFTYYAMHWVRQAPGQRLEWMGWINAGNGFTKYSQKFQGRVTITRDTSASTAYMELSSLRSEDTAVYYCARDISYGSFDYWGQGTLVTVSS
VL: SSELTQDPAVSVALGQTVRITCQGDSLRSNYANWYQQKPGQAPVLVIYGQFNLPSGIPDRFSGSSSGNTASLTITGAQAADEADYYCDSRVSTGIHVVFGGGTKLTVLG
notes: as for B3
In the case of B9, the binding result in assay [4] was “binds”.

B10: Clone G (affinity matured antibody from the combinatorial library) (Fab, V domains shown)
VH: EVQLVQSGAEVKKPGASVKVSCKASGYTFTIYAMHWVRQAPGQRLEWMGWINAGNGNTKYSQKFQGRVTITRDTSASTAYMELSSLRSEDTAVYYCARDISYGSFDYWGQGTLVTVSS
VL: SSELTQDPAVSVALGQTVRITCQGDSLRSNYANWYQQKPGQAPVLVIYGQFNLPSGIPDRFSGSSSGNTASLTITGAQAADEADYYCDSRVSTGIHVVFGGGTKLTVLG
notes: as for B3
Turning to B10, the binding result in assay [4] was “binds”.

B11: Clone H (affinity matured antibody from the combinatorial library) (Fab, V domains shown)
VH: EVQLVQSGAEVKKPGASVKVSCKASGYTFTIYAMHWVRQAPGQRLEWMGWINAGNGNTKYSQKFQGRVTITRDTSASTAYMELSSLRSEDTAVYYCARDISYGSFDYWGQGTLVTVSS
VL: SSELTQDPAVSVALGQTVRITCQGDSLRSNYANWYQQKPGQAPVLVIYGQFNRPSGIPDRFSGSSSGNTASLTITGAQAADEADYYCDSRVSTGIHVVFGGGTKLTVLG
notes: as for B3
With B11, the binding result in assay [4] is recorded as “binds”.

B12: Clone L (affinity matured antibody from the combinatorial library) (Fab, V domains shown)
VH: EVQLVQSGAEVKKPGASVKVSCKASGYTFTIYAMHWVRQAPGQRLEWMGWINAGNGNTKYSQKFQGRVTITRDTSASTAYMELSSLRSEDTAVYYCARDISYGSFDYWGQGTLVTVSS
VL: SSELTQDPAVSVALGQTVRITCQGDSLRSNYANWYQQKPGQAPVLVIYGQFNRPSGIPDRFSGSSSGNTASLTITGAQAADEADYYCDSRVSTGNHVVFGGGTKLTVLG
notes: as for B3
In the case of B12, the binding result in assay [4] is “binds”.

B13: Clone C (affinity matured antibody from the combinatorial library) (Fab, V domains shown)
VH: EVQLVQSGAEVKKPGASVKVSCKASGYTFTYYAMHWVRQAPGQRLEWMGWINAGNGFTKYSQKFQGRVTITRDTSASTAYMELSSLRSEDTAVYYCARDISYGSFDYWGQGTLVTVSS
VL: SSELTQDPAVSVALGQTVRITCQGDSLRSNYANWYQQKPGQAPVLVIYGQFNRPSGIPDRFSGSSSGNTASLTITGAQAADEADYYCDSRVSTGIHVVFGGGTKLTVLG
notes: as for B3
Take B13: the binding result in assay [4] was “binds”.

B14: Clone F (affinity matured antibody from the combinatorial library) (Fab, V domains shown)
VH: EVQLVQSGAEVKKPGASVKVSCKASGYTFTYYAMHWVRQAPGQRLEWMGWINAGNGNTKYSQKFQGRVTITRDTSASTAYMELSSLRSEDTAVYYCARDISYGSFDYWGQGTLVTVSS
VL: SSELTQDPAVSVALGQTVRITCQGDSLRSNYANWYQQKPGQAPVLVIYGQFNLPSGIPDRFSGSSSGNTASLTITGAQAADEADYYCDSRVSTGNHVVFGGGTKLTVLG
notes: as for B3
Take B14: the binding result in assay [4] is recorded as “binds”.

B15: Clone J (affinity matured antibody from the combinatorial library) (Fab, V domains shown)
VH: EVQLVQSGAEVKKPGASVKVSCKASGYTFTYYAMHWVRQAPGQRLEWMGWINAGNGFTKYSQKFQGRVTITRDTSASTAYMELSSLRSEDTAVYYCARDISYGSFDYWGQGTLVTVSS
VL: SSELTQDPAVSVALGQTVRITCQGDSLRSNYANWYQQKPGQAPVLVIYGQNNRPSGIPDRFSGSSSGNTASLTITGAQAADEADYYCDSRVSTGIHVVFGGGTKLTVLG
notes: as for B3
As to B15, in assay [4], the binding result is given as “binds”.

For the origin of these results see patent publication US20210275684A1 (MONOJUL, published 2021).
